The assay has as its target Hepatitis B e antigen (HBeAg), purified (hepatitis B virus). The experiment in a line: SEC-MALS. (In general: In gel filtration, larger molecules generally elute earlier.)

As a reminder, the stoichiometry N is a count of units in the complex or per binding partner. With “Hepatitis B e antigen (HBeAg), purified (natural protein)”, the stoichiometry N worked out at 2.

The record behind these values is publication PMC6618080.
